Assay results from patent US20260055205A1 (published 2026).

Molecular target: T1, human CD3 epsilon (human, UniProt P07766 23-126, limits assumed)
T1 construct: also called huCD3e
Experiment: Octet, crude lysate
Source text: To achieve this, Pool 1 was created, which included 74 paTCE molecules, each containing PSMA.5 and one of the 74 CD3.23 mutation variants. Single mutations were chosen based on analyses including CD3.23 PTE score analysis (using internal PTE algorithm v12) and structural analysis. Structural considerations included: possible contact disruption, anticipated steric clashes, side chain charge maintenance and possible pockets filling. Stability and affinity of the individually expressed molecules in the form of crude lysate was evaluated by Octet (ForteBio).

T1 sequence (P07766 23-126 limits assumed): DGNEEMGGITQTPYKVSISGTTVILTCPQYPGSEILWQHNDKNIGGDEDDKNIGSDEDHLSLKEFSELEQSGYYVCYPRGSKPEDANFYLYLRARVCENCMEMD

| Kd | Binder |
| --- | --- |
| 14 nM | CD3.23-D (bispecific antibody, V domains shown, paTCE with PSMA.5; also called AC3366; WT) VH: EVQLLESGGGIVQPGGSLKLSCAASGFTFNTYAMNWVRQAPGKGLEWVARIRSKYNNYATYYADSVKDRFTISRDDSKNTVYLQMNNLKTEDTAVYYCVRHENFGNSYVSWFAHWGQGTLVTVSS VL: ELVVTQEPSLTVSPGGTVTLTCRSSNGAVTSSNYANWVQQKPGQAPRGLIGGTNKRAPGTPARFSGSLLGGKAALTLSGVQPEDEAVYYCALWYPNLWVFGGGTKLTVL |
| 4.8 nM | CD3.67 (bispecific antibody, V domains shown, paTCE with PSMA.5; also called AC3396; S52aT) VH: EVQLLESGGGIVQPGGSLKLSCAASGFTFNTYAMNWVRQAPGKGLEWVARIRTKYNNYATYYADSVKDRFTISRDDSKNTVYLQMNNLKTEDTAVYYCVRHENFGNSYVSWFAHWGQGTLVTVSS VL: ELVVTQEPSLTVSPGGTVTLTCRSSNGAVTSSNYANWVQQKPGQAPRGLIGGTNKRAPGTPARFSGSLLGGKAALTLSGVQPEDEAVYYCALWYPNLWVFGGGTKLTVL |
| 434 nM | CD3.60 (bispecific antibody, V domains shown, paTCE with PSMA.5; also called AC3389; R52Q) VH: EVQLLESGGGIVQPGGSLKLSCAASGFTFNTYAMNWVRQAPGKGLEWVARIQSKYNNYATYYADSVKDRFTISRDDSKNTVYLQMNNLKTEDTAVYYCVRHENFGNSYVSWFAHWGQGTLVTVSS VL: ELVVTQEPSLTVSPGGTVTLTCRSSNGAVTSSNYANWVQQKPGQAPRGLIGGTNKRAPGTPARFSGSLLGGKAALTLSGVQPEDEAVYYCALWYPNLWVFGGGTKLTVL |
| 18.1 nM | CD3.39 (bispecific antibody, V domains shown, paTCE with PSMA.5; also called AC3368; W47E) VH: EVQLLESGGGIVQPGGSLKLSCAASGFTFNTYAMNWVRQAPGKGLEEVARIRSKYNNYATYYADSVKDRFTISRDDSKNTVYLQMNNLKTEDTAVYYCVRHENFGNSYVSWFAHWGQGTLVTVSS VL: ELVVTQEPSLTVSPGGTVTLTCRSSNGAVTSSNYANWVQQKPGQAPRGLIGGTNKRAPGTPARFSGSLLGGKAALTLSGVQPEDEAVYYCALWYPNLWVFGGGTKLTVL |
| 40.2 nM | CD3.38 (bispecific antibody, V domains shown, paTCE with PSMA.5; also called AC3367; W47D) VH: EVQLLESGGGIVQPGGSLKLSCAASGFTFNTYAMNWVRQAPGKGLEDVARIRSKYNNYATYYADSVKDRFTISRDDSKNTVYLQMNNLKTEDTAVYYCVRHENFGNSYVSWFAHWGQGTLVTVSS VL: ELVVTQEPSLTVSPGGTVTLTCRSSNGAVTSSNYANWVQQKPGQAPRGLIGGTNKRAPGTPARFSGSLLGGKAALTLSGVQPEDEAVYYCALWYPNLWVFGGGTKLTVL |
| 11.2 nM | CD3.43 (bispecific antibody, V domains shown, paTCE with PSMA.5; also called AC3372; V48S) VH: EVQLLESGGGIVQPGGSLKLSCAASGFTFNTYAMNWVRQAPGKGLEWSARIRSKYNNYATYYADSVKDRFTISRDDSKNTVYLQMNNLKTEDTAVYYCVRHENFGNSYVSWFAHWGQGTLVTVSS VL: ELVVTQEPSLTVSPGGTVTLTCRSSNGAVTSSNYANWVQQKPGQAPRGLIGGTNKRAPGTPARFSGSLLGGKAALTLSGVQPEDEAVYYCALWYPNLWVFGGGTKLTVL |
| 1180 nM | CD3.54 (bispecific antibody, V domains shown, paTCE with PSMA.5; also called AC3383; I51A) VH: EVQLLESGGGIVQPGGSLKLSCAASGFTFNTYAMNWVRQAPGKGLEWVARARSKYNNYATYYADSVKDRFTISRDDSKNTVYLQMNNLKTEDTAVYYCVRHENFGNSYVSWFAHWGQGTLVTVSS VL: ELVVTQEPSLTVSPGGTVTLTCRSSNGAVTSSNYANWVQQKPGQAPRGLIGGTNKRAPGTPARFSGSLLGGKAALTLSGVQPEDEAVYYCALWYPNLWVFGGGTKLTVL |
| 71.5 nM | CD3.42 (bispecific antibody, V domains shown, paTCE with PSMA.5; also called AC3371; V48G) VH: EVQLLESGGGIVQPGGSLKLSCAASGFTFNTYAMNWVRQAPGKGLEWGARIRSKYNNYATYYADSVKDRFTISRDDSKNTVYLQMNNLKTEDTAVYYCVRHENFGNSYVSWFAHWGQGTLVTVSS VL: ELVVTQEPSLTVSPGGTVTLTCRSSNGAVTSSNYANWVQQKPGQAPRGLIGGTNKRAPGTPARFSGSLLGGKAALTLSGVQPEDEAVYYCALWYPNLWVFGGGTKLTVL |
| 8.3 nM | CD3.40 (bispecific antibody, V domains shown, paTCE with PSMA.5; also called AC3369; V48A) VH: EVQLLESGGGIVQPGGSLKLSCAASGFTFNTYAMNWVRQAPGKGLEWAARIRSKYNNYATYYADSVKDRFTISRDDSKNTVYLQMNNLKTEDTAVYYCVRHENFGNSYVSWFAHWGQGTLVTVSS VL: ELVVTQEPSLTVSPGGTVTLTCRSSNGAVTSSNYANWVQQKPGQAPRGLIGGTNKRAPGTPARFSGSLLGGKAALTLSGVQPEDEAVYYCALWYPNLWVFGGGTKLTVL |
| 5.7 nM | CD3.44 (bispecific antibody, V domains shown, paTCE with PSMA.5; also called AC3373; V48T) VH: EVQLLESGGGIVQPGGSLKLSCAASGFTFNTYAMNWVRQAPGKGLEWTARIRSKYNNYATYYADSVKDRFTISRDDSKNTVYLQMNNLKTEDTAVYYCVRHENFGNSYVSWFAHWGQGTLVTVSS VL: ELVVTQEPSLTVSPGGTVTLTCRSSNGAVTSSNYANWVQQKPGQAPRGLIGGTNKRAPGTPARFSGSLLGGKAALTLSGVQPEDEAVYYCALWYPNLWVFGGGTKLTVL |
| 4.5 nM | CD3.48 (bispecific antibody, V domains shown, paTCE with PSMA.5; also called AC3377; A49G) VH: EVQLLESGGGIVQPGGSLKLSCAASGFTFNTYAMNWVRQAPGKGLEWVGRIRSKYNNYATYYADSVKDRFTISRDDSKNTVYLQMNNLKTEDTAVYYCVRHENFGNSYVSWFAHWGQGTLVTVSS VL: ELVVTQEPSLTVSPGGTVTLTCRSSNGAVTSSNYANWVQQKPGQAPRGLIGGTNKRAPGTPARFSGSLLGGKAALTLSGVQPEDEAVYYCALWYPNLWVFGGGTKLTVL |
| 34300 nM | CD3.45 (bispecific antibody, V domains shown, paTCE with PSMA.5; also called AC3374; V48W) VH: EVQLLESGGGIVQPGGSLKLSCAASGFTFNTYAMNWVRQAPGKGLEWWARIRSKYNNYATYYADSVKDRFTISRDDSKNTVYLQMNNLKTEDTAVYYCVRHENFGNSYVSWFAHWGQGTLVTVSS VL: ELVVTQEPSLTVSPGGTVTLTCRSSNGAVTSSNYANWVQQKPGQAPRGLIGGTNKRAPGTPARFSGSLLGGKAALTLSGVQPEDEAVYYCALWYPNLWVFGGGTKLTVL |
| 165 nM | CD3.41 (bispecific antibody, V domains shown, paTCE with PSMA.5; also called AC3370; V48E) VH: EVQLLESGGGIVQPGGSLKLSCAASGFTFNTYAMNWVRQAPGKGLEWEARIRSKYNNYATYYADSVKDRFTISRDDSKNTVYLQMNNLKTEDTAVYYCVRHENFGNSYVSWFAHWGQGTLVTVSS VL: ELVVTQEPSLTVSPGGTVTLTCRSSNGAVTSSNYANWVQQKPGQAPRGLIGGTNKRAPGTPARFSGSLLGGKAALTLSGVQPEDEAVYYCALWYPNLWVFGGGTKLTVL |
| 425 nM | CD3.56 (bispecific antibody, V domains shown, paTCE with PSMA.5; also called AC3385; I51T) VH: EVQLLESGGGIVQPGGSLKLSCAASGFTFNTYAMNWVRQAPGKGLEWVARTRSKYNNYATYYADSVKDRFTISRDDSKNTVYLQMNNLKTEDTAVYYCVRHENFGNSYVSWFAHWGQGTLVTVSS VL: ELVVTQEPSLTVSPGGTVTLTCRSSNGAVTSSNYANWVQQKPGQAPRGLIGGTNKRAPGTPARFSGSLLGGKAALTLSGVQPEDEAVYYCALWYPNLWVFGGGTKLTVL |

Molecular target: T2, human PSMA (human, UniProt Q04609 44-750, limits assumed)
T2 construct: also called huPSMA; hPSMA
Experiment: binding screen

T2 sequence (Q04609 44-750 limits assumed): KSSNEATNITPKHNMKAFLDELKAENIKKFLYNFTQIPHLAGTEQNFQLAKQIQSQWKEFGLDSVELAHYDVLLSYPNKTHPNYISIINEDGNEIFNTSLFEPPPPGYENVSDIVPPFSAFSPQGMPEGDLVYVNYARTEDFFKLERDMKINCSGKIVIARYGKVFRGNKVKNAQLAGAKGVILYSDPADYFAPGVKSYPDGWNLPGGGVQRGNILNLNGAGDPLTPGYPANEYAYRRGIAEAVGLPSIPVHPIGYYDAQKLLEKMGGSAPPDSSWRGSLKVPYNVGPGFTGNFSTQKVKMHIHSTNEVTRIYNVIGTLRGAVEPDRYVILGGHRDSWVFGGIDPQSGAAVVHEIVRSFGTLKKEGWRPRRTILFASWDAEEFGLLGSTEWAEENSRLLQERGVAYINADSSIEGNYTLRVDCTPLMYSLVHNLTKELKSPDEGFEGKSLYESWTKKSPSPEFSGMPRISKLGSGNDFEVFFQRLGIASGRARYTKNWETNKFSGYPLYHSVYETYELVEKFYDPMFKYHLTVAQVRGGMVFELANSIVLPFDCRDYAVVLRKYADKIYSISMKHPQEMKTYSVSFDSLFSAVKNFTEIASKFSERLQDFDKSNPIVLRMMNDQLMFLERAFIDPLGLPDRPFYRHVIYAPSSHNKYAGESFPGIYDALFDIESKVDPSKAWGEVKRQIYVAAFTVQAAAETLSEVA

| binding result | Binder |
| --- | --- |
| no binding | PSMA.359 (bispecific antibody, V domains shown, TCE with CD3.23; also called AC3761) VH: QVQLVESGGGVVQPGRSLRLSCAASGRTFGIYVWGWFRQAPGKEREFVGAMSWSGSNRKVSDSVKGRFTISRDNSKNTLYLQMNSLRAEDTAVRYCAGSNKLYGRTWYDFNESDYWGQGTQVTVSS |
| no binding | PSMA.360 (bispecific antibody, V domains shown, TCE with CD3.23; also called AC3762) VH: QVQLVESGGGVVQPGRSLRLSCAASGRTFGIYVWGWFRQAPGKEREFVGAMSWSGSNRKVSDSVKGRFTISRDNSKNTLYLQMNSLRAEDTAVNYCAGSNKLYGRTWYDFNESDYWGQGTQVTVSS |
